Source: patent publication US20040029178A1, “Novel g protein-coupled receptor proteins and dnas thereof” (priority 2000, published 2004)
Peptide text beside a SMILES is read from it.

Legend:
TGR26 [1] = target: T1, TGR26 (Rattus norvegicus, UniProt Q56UD9); experiment: Receptor binding using [125I-Tyr10]-hGPR8L (1-23) and membrane fraction of TGR26 expressing CHO cells; conditions: for inhibition for the specific binding of [125I-Tyr10]-hGPR8L (1-23): membrane fraction of TGR26 expressing cells, in words; for IC50: membrane fraction of TGR26 expressing CHO cells, [125I-Tyr10]-hGPR8L (1-23), method of Example 8
T1 construct: expressed in transfected cells; whole cells in A1, membrane fraction in A2 and A3
T1 sequence (Q56UD9 1-329): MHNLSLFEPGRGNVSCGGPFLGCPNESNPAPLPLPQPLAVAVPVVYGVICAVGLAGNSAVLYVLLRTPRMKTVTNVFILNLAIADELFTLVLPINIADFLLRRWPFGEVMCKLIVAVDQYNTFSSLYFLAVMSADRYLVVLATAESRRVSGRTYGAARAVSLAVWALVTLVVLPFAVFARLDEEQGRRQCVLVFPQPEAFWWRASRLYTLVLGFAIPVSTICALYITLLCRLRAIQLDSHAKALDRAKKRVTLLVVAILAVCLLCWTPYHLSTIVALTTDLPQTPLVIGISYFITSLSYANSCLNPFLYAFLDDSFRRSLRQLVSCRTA
Protocol: Using [^125I-Tyr^10]-hGPR8L (1-23) prepared by the method described in Reference Example 15 and a cell membrane fraction prepared from TGR26 expressing cells as described in Example 6, a receptor binding assay was carried out as follows.
Cell membrane fraction prepared from TGR26 expressing cells was diluted to various concentration with assay buffer (25 mM Tris-HCl, 5 mM EDTA, 0.05% CHAPS (3-[(3-Cholamidopropyl) Dimethyl-Ammonio]-1-Propanesulfonate), 0.1% BSA, 0.5 mM PMSF, 1 μg/ml Pepstatin, 20 μg/ml Leupeptin, 4 μg/ml E-64, pH 7.4), and 200 μl each of the diluent was dispensed into polypropilene test tube (Falcon 2053). In order to determine an amount of maximum binding, 2 μl of DMSO and 2 μl of 7 nM [^125I-Tyr^10]-hGPR8L (1-23) were added to the membrane fraction solution. Further, in order to determine a non-specific binding, 2 μl of 100 μM hGPR8L (1-23)/DMSO solution and 2 μl of 7 nM [^125I-Tyr^10]-hGPR8L (1-23) were added to the membrane fraction solution. The reaction was done at 25° C. for 75 minutes, and the reaction mixture was filtered by suction filtration using Whatman glassfilter (GF-F) treated with polyethyleneimine. In addition, the filter was washed twice with 1.5 ml of washing buffer (25 mM Tris-HCl, 5 mM EDTA, 0.05% CHAPS, 0.1% BSA, pH 7.4). After filtration, a radioactivity remaining on the filter was counted using γ-counter, and an amount of specific binding was estimated by subtracting an amount of non-specific binding from an amount of maximum binding.
Where the concentration of membrane fraction was set to 3 μg/ml, an inhibition for the specific binding of [125I-Tyr^10]-hGPR8L (1-23) to the membrane fraction of TGR26 expressing cells by hGPR8L (1-23) and hGPR8L (1-30) was investigated.
A receptor binding activity of human- and porcine-homologue derivatives of GPR8 ligand peptide obtained in the reference examples was measured using a membrane fraction of TGR26 expressing CHO cells and [^125I-Tyr^10]-hGPR8L (1-23) by the method described in Example 8. The receptor binding activity is represented by concentration of 50% inhibition for binding (IC50 value).

TGR26 [2] = target: T1, TGR26; experiment: Inhibition of intracellular cAMP production using TGR26 expressing CHO cells; format: cell-based; conditions: 2 μM forskolin, various concentrations
Protocol: TGR26 expressing CHO cells prepared in Example 3 were seeded on 24-well plate at 5×10^4 cells/well and cultivated for 48 hours. The cells were washed with MEMα buffer (pH 7.4) containing 0.2 mM 3-isobutyl-methylxanthine, 0.05% BSA (bovine serum albumine) and 20 mM HEPES [hereafter, MEMα buffer (pH 7.4) containing 0.2 mM 3-isobutyl-methylxanthine, 0.05% BSA (bovine serum albumine) and 20 mM HEPES may be referred to as reaction buffer]. Then, 0.5 ml of the reaction buffer was added to the cells and the suspension was incubated for 30 minutes in the incubator. After removal of the reaction buffer and newly adding 0.25 ml of the reaction buffer to the cells, an appropriate concentration of sample in DMSO solution and 0.25 ml of the reaction buffer containing 2 μM forskolin were added to the cells and the mixture was reacted at 37° C. for 30 minutes. For termination of the reaction, 100 μl of 20% perchloric acid was added. Subsequently, the mixture was stood on ice for an hour to extract intracellular cAMP. The cAMP level in the extract was measured using the cAMP EIA Kit (Amersham Pharmacia Biotech).
The human homologue of GPR8 ligand peptide consisting of 23 residues represented by […], which was obtained in Reference Example 12 (hereafter, sometimes referred to as hGPR8L (1-23)), or the human homologue of GPR8 ligand peptide consisting of 30 residues represented by […], which was obtained in Reference Example 13 (hereafter, sometimes referred to as hGPR8L (1-30)) was administered at various concentrations to […] TGR26 expressing CHO cells by the method described in Example 4, and an inhibiting activity of intracellular cAMP production was measured.
In the figure, when an amount subtracted intracellular cAMP level with the reaction buffer from intracellular cAMP level with the reaction buffer containing forskolin is indicated as 100%, the inhibiting activity of cAMP synthesis is indicated as an amount subtracted intracellular cAMP level with hGPR8L (1-23) or hGPR8L (1-30) from intracellular cAMP level with the reaction buffer by representation of percentage (%).

TGR26 [3] = target: T1, TGR26; experiment: GTPγS binding activity using a membrane fraction of TGR26 expressing CHO cells; format: biochemical; conditions: various concentrations
Protocol: Promoting activity for [^35S]-guanosine 5′-(γ-thio) triphosphate (GTPγS) binding to a membrane fraction of TGR26 expressing cells was assayed in accordance with the following method.
To 1×10^8 of TGR26 expressing CHO cells, 10 ml of homogenating buffer (10 mM NaHCO3, 5 mM EDTA, 0.5 mM PMSF (phenylmethylsulfonyl fluoride), 1 μg/ml Pepstatin, 4 μg/ml E-64, 20 μg/ml Leupeptin) was added, and the cells were disrupted using Polytron (12,000 rpm, 1 minute). Supernatant was obtained from the disrupted cell suspension by centrifugation (1,000 g, 15 minutes). In addition, the supernatant was ultracentrifuged (Beckman Type 30 rotor, 30,000 rpm, 1 hour), and precipitate obtained was kept as a membrane fraction of TGR26 expressing CHO cells.
The membrane fraction of TGR26 expressing CHO cells was diluted with membrane dilution buffer (50 mM Tris HCl buffer (pH 7.4), 5 mM MgCl2, 150 mM NaCl, 1 μM GDP, 0.1% BSA) to prepare a cell membrane fraction solution for assay at 30 μg/ml of protein concentration. To 200 μl of membrane fraction solution for assay, 2 μl of 50 nM [^35S]-guanosine 5′-(γ-thio) triphosphate (NEN) and 2 μl of sample/DMSO solution having an appropriate concentration were added. Then the mixture was incubated at 25° C. for one hour. The mixture was filtrated, and further the filter was washed twice with 1.5 ml of washing buffer (50 mM Tris HCl buffer (pH 7.4), 5 mM MgCl2, 1 mM EDTA, 0.1% BSA). Finally, a radioactivity on the filter was determined by liquid scintillation counter.
Various concentration of hGPR8L (1-23) or hGPR8L (1-30) was mixed with a membrane fraction of the TGR26 expressing cell in accordance with the method described in Example 6, and a promoting activity of GTPγS binding was assayed.

Row | Compound | inhibition for the specific binding of [125I-Tyr10]-hGPR8L (1-23) (TGR26 [1]) | inhibiting activity of intracellular cAMP production (TGR26 [2]) | promoting activity of GTPγS binding (TGR26 [3]) | IC50 (TGR26 [1])
1 | SEQ ID NO: 57: porcine homologue of hGPR8L (1-30), ligand peptide to GPR8 deduced from SEQ ID NO: 55 (WYKHTASPRYHTVGRAAGLLMGLRRSPYMW; Porcine) | can also be confirmed | intracellular cAMP production of the TGR26 expressing CHO cells was inhibited depending on the concentration | GTPγS binding of the TGR26 expressing CHO cells was promoted depending on the concentration | 
2 | SEQ ID NO: 74: rat homologue of hGPR8L (1-30), ligand peptide to GPR8 deduced from SEQ ID NO: 72 (WYKHVASPRYHTVGRASGLLMGLRRSPYLW; Rat) | can also be confirmed | intracellular cAMP production of the TGR26 expressing CHO cells was inhibited depending on the concentration | GTPγS binding of the TGR26 expressing CHO cells was promoted depending on the concentration | 
3 | SEQ ID NO: 92: mouse homologue of hGPR8L (1-30), ligand peptide to GPR8 deduced from SEQ ID NO: 90 (WYKHVASPRYHTVGRASGLLMGLRRSPYQW; Mouse) | can also be confirmed | intracellular cAMP production of the TGR26 expressing CHO cells was inhibited depending on the concentration | GTPγS binding of the TGR26 expressing CHO cells was promoted depending on the concentration | 
4 | CSCC[C@H](NC(=O)[C@H](CC(C)C)NC(=O)[C@H](CC(C)C)NC(=O)CNC(=O)[C@H](C)NC(=O)[C@H](C)NC(=O)[C@H](CCCNC(=N)N)NC(=O)CNC(=O)[C@@H](NC(=O)[C@@H](NC(=O)[C@H](Cc1c[nH]cn1)NC(=O)[C@H](Cc1ccc(O)cc1)NC(=O)[C@H](CCCNC(=N)N)NC(=O)[C@@H]1CCCN1C(=O)[C@H](CO)NC(=O)[C@H](C)NC(=O)[C@@H](NC(=O)[C@H](Cc1c[nH]cn1)NC(=O)[C@H](CCCCN)NC(=O)[C@H](Cc1ccc(O)cc1)NC(=O)[C@@H](N)Cc1c[nH]c2ccccc12)[C@@H](C)O)[C@@H](C)O)C(C)C)C(=O)NCC(=O)N[C@@H](CC(C)C)C(=O)O [pGPR8L (1-23), Trp-Tyr-Lys-His-Val-Ala-Ser -Pro-Arg-Tyr-His-Thr-Val-Gly-Arg-Ala-Ala-Gly-Leu-Leu-Met-Gly-Leu] |  | intracellular cAMP production of the TGR26 expressing CHO cells was inhibited depending on the concentration | GTPγS binding of the TGR26 expressing CHO cells was promoted depending on the concentration | 
5 | CSCC[C@H](NC(=O)[C@H](CC(C)C)NC(=O)[C@H](CC(C)C)NC(=O)CNC(=O)[C@H](C)NC(=O)[C@H](C)NC(=O)[C@H](CCCNC(=N)N)NC(=O)CNC(=O)[C@@H](NC(=O)[C@@H](NC(=O)[C@H](Cc1c[nH]cn1)NC(=O)[C@H](Cc1ccc(O)cc1)NC(=O)[C@H](CCCNC(=N)N)NC(=O)[C@@H]1CCCN1C(=O)[C@H](CO)NC(=O)[C@H](C)NC(=O)[C@@H](NC(=O)[C@@H](N)Cc1c[nH]cn1)C(C)C)[C@@H](C)O)C(C)C)C(=O)NCC(=O)N[C@@H](CC(C)C)C(=O)O [hGPR8L (4-23), His-Val-Ala-Ser-Pro-Arg-Tyr -His-Thr-Val-Gly-Arg-Ala-Ala-Gly-Leu-Leu-Met-Gly-Leu] (H-HVASPRYHTVGRAAGLLMGL-OH; C-terminus assumed) |  |  |  | 2000 nM
6 | Trp-Tyr-Lys-His-Val-Ala-Ser -Pro-Arg-Tyr-His-Thr-Val-Gly-Arg-Ala-Ala-Gly-Leu-Leu-Met-Gly-Leu [SEQ ID NO: 73] | can also be confirmed | intracellular cAMP production of the TGR26 expressing CHO cells was inhibited depending on the concentration | GTPγS binding of the TGR26 expressing CHO cells was promoted depending on the concentration | 
7 | CSCC[C@H](NC(=O)[C@H](CC(C)C)NC(=O)[C@H](CC(C)C)NC(=O)CNC(=O)[C@H](C)NC(=O)[C@H](C)NC(=O)[C@H](CCCNC(=N)N)NC(=O)CNC(=O)[C@@H](NC(=O)[C@@H](NC(=O)[C@H](Cc1c[nH]cn1)NC(=O)[C@H](Cc1ccc(O)cc1)NC(=O)[C@H](CCCNC(=N)N)NC(=O)[C@@H]1CCCN1C(=O)[C@H](CO)NC(=O)[C@H](C)NC(=O)[C@@H](NC(=O)[C@H](Cc1c[nH]cn1)NC(=O)[C@H](CCCCN)NC(=O)[C@@H](N)Cc1ccc(O)cc1)C(C)C)[C@@H](C)O)C(C)C)C(=O)NCC(=O)N[C@@H](CC(C)C)C(=O)O [hGPR8L (2-23), Tyr-Lys-His-Val-Ala-Ser-Pro -Arg-Tyr-His-Thr-Val-Gly-Arg-Ala-Ala-Gly-Leu-Leu-Met-Gly-Leu] (H-YKHVASPRYHTVGRAAGLLMGL-OH; C-terminus assumed) |  |  |  | 240 nM
